Three sequences from US20240238459A1, “Granzyme-Activatable Membrane-Interacting Peptides and Methods of Use” (priority 2021, published 2024) can be followed below.

Ends that are not written are not given here.

For one data set, the system named is human erythrocytes. In words: Toxicity assay measuring hemolysis of human erythrocytes. To be noted: in vitro, 1 hr at 37° C., hemoglobin release OD 540 nm.
Data set [1] addresses T1, granzyme B (Homo sapiens, UniProt P10144). The data set is described as follows: Protease specificity of substrate sequence (FIG. 1F). Type of data set: biochemical. Also on record: purchased. To be noted: vs thrombin, caspase 3, caspase 8, granzyme K, MMP9, C1S; enzymes 5 nM, substrate 60 μM, 37° C., PBS, 1 mM DTT, pH 7.4. The method, then: The substrate sequence FVQWFSKFLGK (SEQ ID NO:3) was assessed for specificity for granzyme B compared to thrombin, caspase 3, caspase 8, granzyme K, MMP9, and C1S at 5 nM concentrations with substrate at 60 μM, 37° C., and buffer of PBS, 1 mM DTT, and pH 7.4.

Data set [2] has as its target T1, granzyme B. In words: In vitro kinetics of quenched fluorogenic peptide proteolysis by GZMB. To be noted: Michaelis-Menten kinetics (FIG. 1D). Type of data set: biochemical.

T1 sequence (P10144 21-247): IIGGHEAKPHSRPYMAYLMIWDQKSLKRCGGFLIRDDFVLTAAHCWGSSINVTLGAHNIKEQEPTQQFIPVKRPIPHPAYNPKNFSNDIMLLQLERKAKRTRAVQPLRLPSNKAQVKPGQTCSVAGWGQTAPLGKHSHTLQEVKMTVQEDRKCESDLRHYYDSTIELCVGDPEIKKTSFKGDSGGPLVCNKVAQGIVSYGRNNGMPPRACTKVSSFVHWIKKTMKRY
Procedure for human erythrocytes: Blood from healthy anonymous donors was harvested from Trima Leukoreduction chambers (Vitalant, San Francisco CA). Erythrocytes were isolated from the anonymous blood samples. Full-length GRIP B and activated GRIP B were measured for their hemolytic activity on healthy human erythrocytes in triplicate. Aliquots of human erythrocytes were suspended in PBS (pH 7.4) and incubated with serial dilutions of both peptides which were initially solubilized in DMSO. DMSO and 1% Triton X-100 were incubated in parallel as negative and positive controls, respectively. Incubation was for 1 hr at 37° C. After incubation, the samples were centrifuged for 5 min at 2,000×g upon which the supernatant was collected. Supernatant was measured for the release of hemoglobin by the erythrocytes using a BioTek H4 multimode plate reader, monitoring the optical density of the supernatant at a wavelength of 540 nm.

Regarding FVQWFSKFLGKIEPDVSQVQDPNDQYEPF [GRIP B], in the data set on human erythrocytes, the “toxicity toward human red blood cells” value was “not to display toxicity”.

Take FVQWFSKFLGK: the “specificity for granzyme B compared to other proteases” value with granzyme B [1] is “highly specific for granzyme B”.

As for “IEPDVSQV (ends and bridges not checked) [NH2-K(MCA)IEPDVSQVK(DNP)-COOH]”, the “improved catalytic turnover compared to IEPD alone” value in the data set with granzyme B [2] is recorded as “approximately 2 fold”.
